The record followed here is US7256321B2, “Intracellular modulators of apoptopic cell death pathways” (Applied Research Systems ARS Holding N.V., priority 1997, dated 2007).

What all share (format): cell-based, mouse
Experiment [1] concerns 3DO transfected clones. The experiment in a line: Anti-CD3-induced apoptosis of 3DO transfected clones (propidium iodide flow cytometry). The note with it: GILR expression in transfected 3DO clones. How it is done:
Thymocytes were obtained from 3 to 5-week-old C3H/HeN mice purchased from Charles River (Milan, Italy). The cell suspensions were washed, filtered and adjusted to a concentration of 8×10^6 cells/ml in complete medium. The cells were incubated at 37° C. alone or with 100 nM/l DEX (Sigma, St. Louis, Mo.) for 3 hrs. A CD3+, CD4+, CD2+, CD44+ sub-line obtained in our laboratory of the OVA-specific mouse hybridoma T cell line (3DO; Ayroldi et al., 1995) maintained in suspension in RPMI 1640 medium supplemented with 10% FCS and […] HEPES buffer was used for transfection experiments. […]
The GILR cDNA coding sequence (874 bp—see FIG. 2) was cloned into a pcDNA3 plasmid (Invitrogen) for expression in mammalian cells. […] These surviving cells were considered clones and analyzed in an RNase protection assay for the expression of exogenous GILR (Vito et al., 1996). […]
Apoptosis was measured by flow cytometry as described elsewhere (Nicoletti et al., 1991). […] The PI-fluorescence of individual nuclei was measured by flow cytometry using standard FACScan equipment (Becton Dickinson). […] A 560 nm dichroid mirror (DM 570) and a 600 nm band pass filter (band width 35 nm) were used to collect the red fluorescence due to PI DNA staining. The data were recorded in logarithmic scale in a Hewlett Packard (HP 9000, model 310; Palo Alto, Calif.) computer. […]

The test system of the next experiment is IL-2R. The experiment in a line: IL-2R (CD25) expression on 3DO transfected clones (flow cytometry). Conditions: overexpression of GILR in transfected 3DO clones. How it is done:
For that purpose, GILR transfected clones were activated and analyzed for apoptosis and expression of activation markers, like the interleukin-2 receptor (IL-2R). In particular, after stimulation with cross-linked anti-CD3 monoclonal antibodies (1 μg/ml), GILR-transfected and empty vector clones (used as control) were stained with anti-IL-2R monoclonal antibody (CD25) or treated for propidium iodide labeling for apoptosis evaluation. The supernatants from control and anti-CD3-treated clones were used for IL-2 detection in an ELISA assay.

Experiment [2] concerns 3DO transfected clones. The experiment in a line: Apoptosis induced by other stimuli on 3DO transfected clones. Conditions: GILR overexpression in 3DO clones GILR/1,5,7 vs pcDNA3/4,7,8, 20 hours. On the procedure: FIGS. 7A-7D are bar-graph representations of the results of the analysis of apoptosis induced by other stimuli on 3DO transfected clones, wherein in FIG. 7A is shown the results obtained with withdrawn trophic factor; in FIG. 7B is shown the results obtained with u.v. irradiation (100 J/m2); in FIG. 7C is shown the results obtained with DEX ([…]); and in FIG. 7D is shown the results obtained with monoclonal (mAb) anti-Fas antibody (5 μg/ml). All groups were treated for 20 hours. Cell death was measured as indicated above with respect to FIG. 6, and as noted herein below. […]
Aliquots of2 ml transfected clones (1×10^6/ml) were incubated with DEX or subjected to deprivation conditions (1% FCS). The apoptosis was evaluated after 20 hours as described below.
Apoptosis was measured by flow cytometry as described elsewhere (Nicoletti et al., 1991). […] The PI-fluorescence of individual nuclei was measured by flow cytometry using standard FACScan equipment (Becton Dickinson). […] A 560 nm dichroid mirror (DM 570) and a 600 nm band pass filter (band width 35 nm) were used to collect the red fluorescence due to PI DNA staining. The data were recorded in logarithmic scale in a Hewlett Packard (HP 9000, model 310; Palo Alto, Calif.) computer. The percentage of apoptotic cell nuclei (sub-diploid DNA peak in the DNA fluorescence histogram) was calculated with specific FACScan research software (Lysis II).

In experiment [3] the test system is Fas/Fas-L expression on 3DO transfected clones. In words: Fas and Fas-L expression on 3DO transfected clones (flow cytometry). The note with it: GILR expression in transfected 3DO clones. On the procedure:
Hamster anti-mouse CD3ε (clone 145-2C11; Pharmingen, San Diego, Calif.) mAb at 1 μg/well (=1 μg/ml of anti-CD3 antibody) was allowed to adhere to flat-bottomed, high-binding 96-well plates (Costar, Cambridge, Mass.) at 4° C. in 100 μl PBS. After 20 hours, plates coated with mAb were washed and transfected clones were plated at 1×10^5 cells/well and incubated at 37° C. for 20 hours. Isotype-matched rat anti-mouse IgG 2b mAbs (clone R 35-38, Pharmingen) were used a control.
A single suspension (1×10^6cells/sample) was incubated for 30 minutes on ice in 50 μl staining buffer (PBS plus 5% FCS), containing 10 μg/ml hamster anti-mouse Fas mAb directly conjugated to R-phycoerythrin (PE) or PE-hamster IgG (isotype control).
Both mAbs were purchased from Pharmingen. Cells were also stained with rabbit polyclonal antibody raised against a peptide corresponding to amino acids 260-279 mapping at the carboxy terminus of human Fas-L (Santa Cruz Biotechnology, Inc., Santa Cruz, Calif.) or with isotype-matched antibody (ab), and with anti-rabbit IgG FITC conjugate, F(ab′)2 fragment (Sigma), as a second step reagent.
All clones were stained with hamster anti-mouse αCD3, directly conjugated with fluorescein (Pharmingen). The median or percentage of Fas and Fas-L histograms was calculated using lysis II research software (Becton-Dickinson, Mountain View, U.S.A.).
A general note: Flow cytometry measures light scatter and fluorescence of single cells or particles in a stream.

B1: GILR: Glucocorticoid Induced Leucine-zipper family Related protein, 137 amino acids (mouse), overexpressed from GILR cDNA in pcDNA3 (protein)
chain: MNTEMYQTPMEVAVYQLHNFSTSFFSSLLGGDVVSVKLDNSASGASVVALDNKIEQAMDLVKNHLMYAVREEVEVLKEQIRELLEKNSQLERENTLLKTLASPEQLEKFQSRLSPEEPAPEAPETPETPEAPGGSAV
For the molecule B1, in the experiment on 3DO transfected clones [1], the TCR/CD3-activated apoptosis entry was “inhibits”. Also, in the experiment on IL-2R, the “anti-CD3 induced activation (IL-2R, IL-2)” value was “inhibits”. Moreover, the “apoptosis induced by DEX, UV irradiation, starvation or crosslinked anti-Fas monoclonal antibody” value with 3DO transfected clones [2] is reported as “does not counteract”. For the same molecule, in experiment [3], the Fas/Fas-L expression entry is reported as “inhibits”.
